{"source": "paper PMC12603323", "key": {"[1]": {"assay": "HA-Ub, MYC-β-catenin IP, 293T", "conditions": "glycan lost; control: SPOP-WT"}, "[2]": {"assay": "HA-Ub co-transfection, IP, 293T", "conditions": "glycan lost; control: SPOP-WT"}, "WB, CRC cells": {"assay": "WB, CRC cells", "conditions": "glycan lost; control: SPOP-WT"}, "WB of SPOP, HCT116": {"assay": "WB of SPOP, HCT116", "conditions": "glycan lost; control: untreated cells"}}}
{"protein": "SPOP (Speckle-type POZ protein): S58/59 A (protein) parent chain: MSRVPSPPPPAEMSSGPVAESWCYTQIKVVKFSYMWTINNFSFCREEMGEVIKSSTFSSGANDKLKWCLRVNPKGLDEESKDYLSLYLLLVSCPKSEVRAKFKFSILNAKGEETKAMESQRAYRFVQGKDWGFKKFIRRDFLLDEANGLLPDDKLTLFCEVSVVQDSVNISGQNTMNMVKVPECRLADELGGLWENSRFTDCCLCVAGQEFQAHKAILAARSPVFSAMFEHEMEESKKNRVEINDVEPEVFKEMMCFIYTGKAPNLDKMADDLLAAADKYALERLKVMCEDALCSNLSVENAAEILILADLHSADQLKTQAVDFINYHASDVLETSGWKSMVVSHPHLVAEAYRSLASAQCPFLGPPRKRLKQS", "values": [{"measurement": "other: substrate β-catenin ubiquitination", "setting": "[1]", "value": "increases"}, {"measurement": "other: ubiquitination of SPOP", "setting": "[2]", "value": "increases"}, {"measurement": "other: substrate β-catenin protein level", "setting": "WB, CRC cells", "value": "decreases"}]}
{"protein": "SPOP (Speckle-type POZ protein): OSMI-1 (protein) parent chain: MSRVPSPPPPAEMSSGPVAESWCYTQIKVVKFSYMWTINNFSFCREEMGEVIKSSTFSSGANDKLKWCLRVNPKGLDEESKDYLSLYLLLVSCPKSEVRAKFKFSILNAKGEETKAMESQRAYRFVQGKDWGFKKFIRRDFLLDEANGLLPDDKLTLFCEVSVVQDSVNISGQNTMNMVKVPECRLADELGGLWENSRFTDCCLCVAGQEFQAHKAILAARSPVFSAMFEHEMEESKKNRVEINDVEPEVFKEMMCFIYTGKAPNLDKMADDLLAAADKYALERLKVMCEDALCSNLSVENAAEILILADLHSADQLKTQAVDFINYHASDVLETSGWKSMVVSHPHLVAEAYRSLASAQCPFLGPPRKRLKQS", "values": [{"measurement": "expression_or_secretion", "setting": "WB of SPOP, HCT116", "value": "increases"}]}
